Experimental data taken from article PMC5712619, “3-Sulfogalactosyl-dependent adhesion of Escherichia coli HS multivalent adhesion molecule is attenuated by sulfatase activity” (The Journal of Biological Chemistry, 2017).

Biological target: mucin from porcine stomach type II (porcine)
Experiment: ELISA; as a2, but mucin type II was first treated with supernatant of the sulfatase-deficient B. thetaiotaomicron anSME mutant for 24 h or 72 h

mucin from porcine stomach type II (porcine), sequence (main, as listed by the source): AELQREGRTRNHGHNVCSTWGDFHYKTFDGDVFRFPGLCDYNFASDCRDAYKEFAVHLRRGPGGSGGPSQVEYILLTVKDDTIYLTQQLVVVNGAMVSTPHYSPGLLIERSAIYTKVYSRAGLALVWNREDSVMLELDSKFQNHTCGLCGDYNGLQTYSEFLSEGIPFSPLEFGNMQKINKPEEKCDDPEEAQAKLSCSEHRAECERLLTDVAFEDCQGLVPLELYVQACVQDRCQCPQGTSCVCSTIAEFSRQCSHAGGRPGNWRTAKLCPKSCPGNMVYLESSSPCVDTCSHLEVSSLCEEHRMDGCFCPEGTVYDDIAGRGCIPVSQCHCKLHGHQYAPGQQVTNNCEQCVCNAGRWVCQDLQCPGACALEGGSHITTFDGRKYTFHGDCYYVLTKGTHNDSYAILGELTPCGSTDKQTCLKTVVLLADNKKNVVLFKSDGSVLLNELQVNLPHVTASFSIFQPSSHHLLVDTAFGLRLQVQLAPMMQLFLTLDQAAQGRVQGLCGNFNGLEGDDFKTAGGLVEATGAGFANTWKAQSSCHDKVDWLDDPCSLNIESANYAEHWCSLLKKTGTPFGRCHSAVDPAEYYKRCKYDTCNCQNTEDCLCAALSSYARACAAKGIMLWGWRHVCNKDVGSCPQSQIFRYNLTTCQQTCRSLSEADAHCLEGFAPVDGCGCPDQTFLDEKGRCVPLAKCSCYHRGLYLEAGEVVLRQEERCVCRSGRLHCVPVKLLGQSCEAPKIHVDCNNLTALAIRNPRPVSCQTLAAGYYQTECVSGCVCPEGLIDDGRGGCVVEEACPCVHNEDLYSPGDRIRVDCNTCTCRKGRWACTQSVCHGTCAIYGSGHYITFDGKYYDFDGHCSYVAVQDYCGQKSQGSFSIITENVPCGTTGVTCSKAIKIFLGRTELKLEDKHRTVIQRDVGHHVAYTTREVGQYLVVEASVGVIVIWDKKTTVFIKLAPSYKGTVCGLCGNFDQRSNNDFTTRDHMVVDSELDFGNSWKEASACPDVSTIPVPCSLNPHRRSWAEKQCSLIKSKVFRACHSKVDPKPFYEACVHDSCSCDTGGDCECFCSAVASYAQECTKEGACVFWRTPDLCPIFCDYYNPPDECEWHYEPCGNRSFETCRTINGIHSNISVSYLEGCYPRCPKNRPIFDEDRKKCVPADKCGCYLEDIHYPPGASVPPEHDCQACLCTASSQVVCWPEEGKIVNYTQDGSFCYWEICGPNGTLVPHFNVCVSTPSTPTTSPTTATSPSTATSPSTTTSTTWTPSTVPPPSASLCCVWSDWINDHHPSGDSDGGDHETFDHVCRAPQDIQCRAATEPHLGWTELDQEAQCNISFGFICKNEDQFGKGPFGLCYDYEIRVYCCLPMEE

In the case of “GST-MAM^HS (multivalent adhesion molecule from the gut commensal Escherichia coli HS, ΔTM construct) (domain or fragment)”, the loss of binding as percent of the loss seen with wild-type supernatant (24 h treatment of mucin with anSME mutant supernatant) is reported as 25% and the loss of binding as percent of the loss seen with wild-type supernatant (72 h treatment of mucin with anSME mutant supernatant) is reported as 50%.
